Non-standard residues stand in square brackets, D forms with d. No end group written: not given here. AEEA = NCCOCCOCC(=O)O

For experiment [1], the target named is T1, soluble human KDR/Fc chimera (R&D Systems Inc.) (human, UniProt P35968 20-764).
T1 construct: Bought reagent; Fc part of the bought chimera not given, not described
Briefly: competition with 125I-VEGF165 for plate-coated KDR-Fc.

Experiment [2] concerns the target T2, NP-1/Fc (R&D Systems).
T2 chain: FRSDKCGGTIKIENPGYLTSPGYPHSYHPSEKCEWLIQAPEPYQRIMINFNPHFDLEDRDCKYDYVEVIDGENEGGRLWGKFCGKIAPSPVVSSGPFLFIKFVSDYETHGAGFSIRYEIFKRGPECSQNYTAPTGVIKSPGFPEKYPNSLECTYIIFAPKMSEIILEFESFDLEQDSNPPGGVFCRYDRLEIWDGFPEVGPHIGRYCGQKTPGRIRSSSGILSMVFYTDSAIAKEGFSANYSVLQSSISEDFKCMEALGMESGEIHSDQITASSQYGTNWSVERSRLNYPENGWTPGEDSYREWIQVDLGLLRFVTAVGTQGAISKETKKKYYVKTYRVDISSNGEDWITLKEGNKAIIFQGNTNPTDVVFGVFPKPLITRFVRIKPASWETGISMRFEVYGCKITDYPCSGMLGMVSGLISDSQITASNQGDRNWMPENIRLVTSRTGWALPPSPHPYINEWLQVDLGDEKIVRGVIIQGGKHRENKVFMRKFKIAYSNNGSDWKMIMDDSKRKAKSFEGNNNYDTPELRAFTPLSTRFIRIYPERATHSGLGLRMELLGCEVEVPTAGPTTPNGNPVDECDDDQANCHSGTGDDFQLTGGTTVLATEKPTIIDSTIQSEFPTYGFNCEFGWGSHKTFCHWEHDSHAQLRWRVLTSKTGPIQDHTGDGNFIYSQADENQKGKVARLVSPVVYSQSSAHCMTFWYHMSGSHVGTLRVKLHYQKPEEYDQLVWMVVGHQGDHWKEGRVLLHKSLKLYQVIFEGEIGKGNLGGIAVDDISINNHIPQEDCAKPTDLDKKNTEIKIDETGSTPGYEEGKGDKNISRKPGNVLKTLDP
Briefly: competition with 250 pM 125I-VEGF165 for plate-coated NP-1/Fc. The protocol: (§1) Competitive binding assays with microtiter plates coated with NP-1/Fc (R&D systems) were performed using ¹²⁵I-VEGF₁₆₅ as radioligand (Amersham Pharmacia Biotech Cat. No. IM274, Specific Activity: 1000-2500 Ci/mmol). An assay buffer consisting of Hank's Balanced Salt Solution (HBSS), 25 mM HEPES, and 0.1% BSA, pH 7.4 was used, and for all experiments, Assay volume per well was 75 μL. Plates (Nunc MaxiSorp white opaque Microtiter plate [C-bottom, 437796]) were coated by incubating the wells with 75 μL of a solution containing 3 μg/mL NP-1/Fc in D-PBS/0.1% NaAzide overnight at 4° C. after covering with sealing tape (Dynex, VWR Cat. No. 62402-931). The next day all wells, even control wells lacking NP-1/Fc, were blocked 2 hrs with blocking buffer (1% BSA in D-PBS with 0.05% v/v Tween-20) then washed 4× with PBST (D-PBS/0.05% v/v Tween-20) before starting the assay. All points were derived from triplicate wells, and for each set of replicates in NP-1/Fc-coated wells, a companion set in the absence of the receptor was included. […] Solutions were added to 1.2 mL polypropylene tubes conforming to the microtiter format (Costar Cat. No. 29442-602), and transferred from these tubes to microtiter wells, without further dilution, using a multichannel pipetter. After addition of the appropriate solutions, microtiter plates were incubated at 4° C. for 2 hours. Following the incubation, plates were handwashed 5 times with D-PBS containing 0.05% Tween-20 and 0.1% BSA. The plates were blotted dry and 25 μL deionized water and 100 μL scintillation fluid (Optiphase SuperMix, Wallac) were added to each well. Plates were agitated using a Plate Shaker (Hyperion, Cat. No. 4030-100F) for 3-5 minutes and were then counted using a Microplate Scintillation Counter (Wallac Microbeta Trilux). A set of serially diluted ¹²⁵I-VEGF₁₆₅ standard wells ranging from 200 to 0.04 pM were included with each experiment to aid in quantification of the amount of radiolabel bound. VEGF₁₆₅ (Cat. No. 100-20) was obtained from Peprotech.

Experiment [3] has as its target T2, NP-1/Fc (R&D Systems). Briefly: fluorescence polarization, competition of OG-labeled D41 binding to NP-1/Fc. The procedure: (§2) The ability of various compositions comprising TKPPR monomers or multimers to bind to NP-1/Fc and KDR-Fc was evaluated using FP. […] FP values (mP) for each substrate was measured by titrating the ligand (5-20 nM) with receptor protein using a Jolley Research and Consulting FPM-1 fluorescence Polarization analyzer. In each of these experiments the observed polarization values were plotted against receptor concentration. The mP values for 100% binding of tracer labeled ligand to receptor protein was calculated using the software provided by the vendor.

Experiment [4] concerns the target T3, NP-1/Fc (R&D Systems).
T3 construct: Bought reagent; also called Neuropilin-1/Fc; Npn-1
Briefly: competition with 250 pM 125I-VEGF165 for plate-coated NP-1/Fc. The procedure: as §1

Experiment [5] addresses T3, NP-1/Fc (R&D Systems). Briefly: fluorescence polarization, OG-labeled ligand (5-20 nM) titrated with NP-1/Fc, 37 C. The protocol:
as §2

The target in experiment [6] is T4, neuropilin-1 on HUVEC (neuropilin-1-expressing cells) (human, UniProt O14786 22-923).
T4 construct: whole, on cells; The assay was done on whole HUVEC; also called NP-1; endothelial cells
T4 sequence (O14786 22-923): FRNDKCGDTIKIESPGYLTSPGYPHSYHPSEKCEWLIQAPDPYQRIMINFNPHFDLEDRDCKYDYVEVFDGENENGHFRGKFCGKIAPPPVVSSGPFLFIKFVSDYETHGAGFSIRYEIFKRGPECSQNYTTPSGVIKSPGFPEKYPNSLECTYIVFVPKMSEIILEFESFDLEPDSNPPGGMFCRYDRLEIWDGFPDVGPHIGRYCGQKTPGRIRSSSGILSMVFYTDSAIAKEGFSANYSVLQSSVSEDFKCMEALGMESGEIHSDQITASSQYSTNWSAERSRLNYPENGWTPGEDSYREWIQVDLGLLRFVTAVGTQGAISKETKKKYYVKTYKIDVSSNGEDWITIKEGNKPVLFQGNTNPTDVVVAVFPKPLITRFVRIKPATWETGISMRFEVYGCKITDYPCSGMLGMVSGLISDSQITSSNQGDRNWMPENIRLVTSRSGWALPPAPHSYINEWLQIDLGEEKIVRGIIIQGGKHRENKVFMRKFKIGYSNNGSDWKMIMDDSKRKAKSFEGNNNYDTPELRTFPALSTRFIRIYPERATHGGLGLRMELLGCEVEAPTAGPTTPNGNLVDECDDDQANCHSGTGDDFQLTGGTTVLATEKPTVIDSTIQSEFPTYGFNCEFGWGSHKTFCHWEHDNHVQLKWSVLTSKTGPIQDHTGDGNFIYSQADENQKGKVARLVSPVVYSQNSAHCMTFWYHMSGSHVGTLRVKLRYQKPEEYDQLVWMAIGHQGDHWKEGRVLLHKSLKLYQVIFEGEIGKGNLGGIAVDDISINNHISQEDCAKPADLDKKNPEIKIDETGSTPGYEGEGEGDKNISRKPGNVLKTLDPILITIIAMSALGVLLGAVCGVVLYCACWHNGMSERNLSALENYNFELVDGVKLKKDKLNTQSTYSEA
Briefly: Qdot binding to HUVEC, fluorescence microscopy. The procedure:
Human umbilical vein endothelial cells (HUVEC) were grown to near confluency on collagen 1-coated 8-well chamber slides (BD Biosciences) in EGM-2 medium (Cambrex). […] The slides were incubated 45 min at 37° C. in a tissue culture incubator with 5% CO₂ then incubated an additional 45 min at room temperature in ambient air. After washing five times with D-PBS (30 sec per wash), the cells were fixed with ice-cold acetone for 2 min, rinsed again with D-PBS, and mounted with SlowFade+Dapi (Molecular Probes). The slide wells were examined with a fluorescence microscope equipped with a filter set optimized for 655 nm quantum dots (Omega).

Experiment [7] concerns the target T3, NP-1/Fc (R&D Systems). Briefly: fluorescence polarization, competition of OG-labeled D41 binding to NP-1/Fc. The procedure: as §2

T1 sequence (P35968 20-764, change not shown): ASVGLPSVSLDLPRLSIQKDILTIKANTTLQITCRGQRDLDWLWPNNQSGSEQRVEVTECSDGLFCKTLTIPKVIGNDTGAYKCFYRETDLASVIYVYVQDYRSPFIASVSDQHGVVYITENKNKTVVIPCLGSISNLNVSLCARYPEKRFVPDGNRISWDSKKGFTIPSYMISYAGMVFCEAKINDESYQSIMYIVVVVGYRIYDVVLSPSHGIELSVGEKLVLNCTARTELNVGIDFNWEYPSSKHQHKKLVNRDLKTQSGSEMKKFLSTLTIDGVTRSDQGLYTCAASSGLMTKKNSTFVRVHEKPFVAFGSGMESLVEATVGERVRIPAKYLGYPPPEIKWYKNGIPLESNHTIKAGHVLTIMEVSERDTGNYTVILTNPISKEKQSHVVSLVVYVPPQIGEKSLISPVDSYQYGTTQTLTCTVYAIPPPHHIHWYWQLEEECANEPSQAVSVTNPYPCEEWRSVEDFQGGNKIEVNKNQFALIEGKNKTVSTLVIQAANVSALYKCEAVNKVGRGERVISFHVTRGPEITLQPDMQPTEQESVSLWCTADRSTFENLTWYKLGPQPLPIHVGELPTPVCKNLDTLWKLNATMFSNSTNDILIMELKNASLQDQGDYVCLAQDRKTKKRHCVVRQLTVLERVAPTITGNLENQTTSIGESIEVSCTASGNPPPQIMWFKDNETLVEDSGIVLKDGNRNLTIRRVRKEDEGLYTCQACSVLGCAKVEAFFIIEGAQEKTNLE

On to {Oregon Green (5-isomer)}-GTKPPR-OH (also called D44; OG-TKPPR) [Oregon Green (5-isomer)-GTKPPR-OH], for which the binding result in experiment [1] was “no binding”. This molecule also gave a half-maximal inhibitory concentration (IC50) with NP-1/Fc (R&D Systems) [2] of 30 µM.

B1: VEGF165 (ligand, UniProt P15692-4 27-191, looked up)
chain: APMAEGGGQNHHEVVKFMDVYQRSYCHPIETLVDIFQEYPDEIEYIFKPSCVPLMRCGGCCNDEGLECVPTEESNITMQIMRIKPHQGQHIGEMSFLQHNKCECRPKKDRARQENPCGPCSERRKHLFVQDPQTCKCSCKNTDSRCKARQLELNERTCRCDKPRR
modifications: 125I label on the radioligand form (Amersham IM274)
notes: mature; The labelled and the unlabelled protein are kept as one molecule; also called unlabeled VEGF
On to B1, for which the 50% inhibitory concentration (IC50) with NP-1/Fc (R&D Systems) [2] was found to be 0.0005 µM; in the experiment with NP-1/Fc (R&D Systems) [3], 0.2 µM.

B2: TKPPR tetramer D41, OG-(TKPPR)4 (peptide)
peptide: [AEEA]TKPPR
modifications: also: tetramer of four TKPPR on a branched non-peptide scaffold, one Oregon Green label on scaffold
notes: also called tetrameric TKPPR; fluorescently-labeled TKPPR tetramer
Regarding B2, the IC50 with NP-1/Fc (R&D Systems) [4] is 0.13 µM. Besides, the dissociation constant Kd with NP-1/Fc (R&D Systems) [5] lay in the range of 0.025 to 0.05 µM.

B3: Qdots conjugated with monomeric TKPPR (D51) (peptide)
peptide: TKPPR
modifications: also: further groups not given here
notes: The full structure of D51 ([M+H] 1004.5) stands only in a drawing; also called D51-conjugated Qdots; linear monomeric TKPPR-conjugated Qdots
On to B3, for which, in experiment [6], the binding result is listed as “binds”.
As to TKPPR (also called D45; TKPPR-OH) [TKPPR (L-threonyl-L-lysyl-L-prolyl-L-prolyl-L-arginine)], the concentration for half-maximal inhibition (IC50) in the experiment with NP-1/Fc (R&D Systems) [4] was found to be 43 µM; in the experiment with NP-1/Fc (R&D Systems) [7], 80 µM.
As to [AEEA]TKPPR (also: dimer on branched bis-acid scaffold carrying one Oregon Green) [TKPPR dimer D40, OG-(TKPPR)2], in the experiment with NP-1/Fc (R&D Systems) [4], the 50% inhibitory concentration (IC50) amounted to 3 µM.

B4: Tuftsin (TKPR) (peptide)
peptide: TKPR
notes: Naturally occurring tetrapeptide, used as free peptide; also called free tuftsin
For B4, the half-maximal inhibitory concentration (IC50) in the experiment with NP-1/Fc (R&D Systems) [2] was found to be 280 µM.

B5: TKPPR tetramer D43 on a lysine core with trioxa Oregon Green at the C-terminal (peptide)
peptide: TKPPR
modifications: also: tetramer: C-terminal Arg of each TKPPR linked to amino groups of branched Lys-Lys(Lys)-Gly core, Gly carries TTDA-Oregon Green
notes: The lysine core (three Lys and one Gly) is not written as a chain of its own; also called Reverse Tetramer; compound 16
In the case of B5, the IC50 in the experiment with NP-1/Fc (R&D Systems) [4] turned out to be 8 µM.

B6: Qdots conjugated with tetrameric TKPPR (D50) (peptide)
peptide: [AEEA]TKPPR
modifications: also: four TKPPR on a branched scaffold, thiol coupled through LC-SMCC to quantum dots
notes: Many D50 molecules on each 655 nm quantum dot; also called D50-conjugated Qdots; branched tetrameric TKPPR-conjugated Qdots
For the molecule B6, the binding result in experiment [6] is “binds”.
